Tested on: MS2 coat protein
Assay: apparent KD of MS2 coat protein; designed switch direction (-1 OFF switch, 1 ON switch): 1; higher = weaker reporter binding
Procedure, shortened: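 Designed RNA switches with common flanks were transcribed on Illumina chips by stalled E. coli RNA polymerase and titrated with SNAP-549-labelled MS2 coat protein, from 0.7 or 1.5 nM doubling to 3 µM, in Tris-HCl pH 7.5 buffer with KCl, MgCl2, BSA, DTT, tRNA and Tween-20. Steps lasted 0.8–1.5 h (lowest) to 10–20 min (highest). Titrations ran without input, with 200 uM small-molecule ligand, or with an oligonucleotide input. Normalised cluster fluorescence was curve-fitted, and apparent KD is the per-design median over clusters.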

[1] = Eterna round: R95, input ligand: FMN 200 uM
[2] = Eterna round: R95, input ligand: microRNA oligo, concentration not stated
[3] = Eterna round: R95, input ligand: none
[4] = input ligand: microRNA oligo, concentration not stated

Sequence	apparent KD of MS2 coat protein [1] [nM]	apparent KD of MS2 coat protein [2] [nM]	apparent KD of MS2 coat protein [3] [nM]	apparent KD of MS2 coat protein [4] [nM]	apparent KD of MS2 coat protein (input ligand: FMN 200 uM) [nM]	apparent KD of MS2 coat protein (input ligand: none) [nM]
AGAGAACAUGAGGAUCACCCAUGUGGGAGAAACAUAGGAUAUAGGAGAGAGAGGGAGGAGCUAGAAGGAUGAUGGA [JR_SS1_Sub082] (puzzle: Same State 1)	80.5	91.1	105			
UUCGAGUUGCAAGGAUAUCUUAUUUAGAUUUUAAGAGAAGGUGCUUCACAGCUACAUGAGGAUCACCCAUGUCUUUCUUCUUAU [JR_SSNG1_Sub064] (Eterna round: R96, puzzle: Same State NG 1)				22.6		
AUGAUAUACUCAGGAUAUAUGCGAGACGACGAGAUAGAAGGGAGAAGAUAAUGACGUACAUGAGGAUCACCCAUGUGAGGAUCA [Same State NG1 S4] (Eterna round: R96, puzzle: Same State NG 1)				20.6	26.9	34
AGCGCGGUCUCGCAGGAUAUCCACAAUCCUACAUGAGGAUCACCCAUGUCGCUGCAGGAUAUUAGGGAGAAGGGUGAUGCCGCGC [Riorge] (puzzle: Same State 2)		25.2				
AGGAGACAUGAGGAUCACCCAUGUACUUCAUAAGGAGAGAACGAGGAUAUGUAGAGAGAGAGGGAACAGAAGGUGUGAGAGGAA [Default title] (Eterna round: R96, puzzle: Same State NG 3)				16.2	18.7	18.7
AGAUCAUGACGAGGAUAUGGUACAUGAGGAUCACCCAUGUAUGUACUAUAACCCGUAUGAGGAAUCCAGAAGGCGUCGUGGUCA [JL SSNG2 1.17] (Eterna round: R96, puzzle: Same State NG 2)				71.8	23.8	85.9
GAGUAGUUGAAAGGAUAUUGAUUGUUAUAGGAUCAAGAAGGUUCUAACAUGAGGAUCACCCAUGUAGGACUAUUCCUGUGUAUC [Parity 83 - Jieux - Same State NG 1] (Eterna round: R96, puzzle: Same State NG 1)				8.78	11	12.5
AGCUAUCGAAAACGAUAGCAAAAGCAUGUACAUGAGGAUCACCCAUGUCAUGUACAGGCUUUUUGCUCGUCUUAAAA [Zipper 23 - 8] (puzzle: Sensor for hsa-mir-208a)	26.4	18.3	124			
GCGGUACCUAACAUGAGGAUCACCCAUGUUCCGGAAACGGCACAGGAUAUCUGUCCGAAAAGGUCAGAGAAGGGUGAAAUCCGC [Fiskers NG3ss - 93] (Eterna round: R96, puzzle: Same State NG 3)				51.6	361	93.3
UGUUAACAUGAGGAUCACCCAUGUCAAAUGAAUCGAGGAUAUGGGAAGUAAUAAGAGAAACUAGAAGGCGAAGUUG [Altered State 1-2 - Jieux - Same State 1] (puzzle: Same State 1)	276	353	192			
UAGAGAGGAAGCGAGGAUAUCGUGGGAGGAACAUGAGGAUCACCCAUGUGUGAUGUUGAGAGGGACGAGAAGGCGCGGGAAAGUA [JR_SS2_Sub079] (puzzle: Same State 2)	171	194	277			
AGUAUACAUGAGGAUCACCCAUGUCUGUAACGGACAGGAUAUGCGUUGCAUCACUGUAAUGCAGAAGGGUCCUGUA [Same State 1 - Mod of JMF's solution 1 v.2] (puzzle: Same State 1)		179				
UGAAUGGUGAUAGGAUAUACAUGAGGAAUCCUCGUAGAAGGAUCACGACAUGAGGAUCACCCAUGUAGCCGUCCGUAGACGGCG [salish99_SSNG1_r04_001] (Eterna round: R96, puzzle: Same State NG 1)				38.9	302	238
GCUCGACGUAUGGCCUACAUGAGGAUCACCCAUGUGAUUGGGCAGGAUAUCUAGAUGCAGGAUGUAGAGAAGGGCCCGUCGAGC [SameState NG3 #47] (Eterna round: R96, puzzle: Same State NG 3)				92	393	230
UGUUGUAUUACAGGAUAUCUAGUGUUUUUAUUUAGAGAAGGGUAUUCACAUGAGGAUCACCCAUGUAUAUACGAGGAAGUUGUG [JMF's solution 34] (Eterna round: R96, puzzle: Same State NG 1)				43		
AGUCCAGCCUGAGCUGGACAAAAGCAUGUACAUGAGGAUCACCCAUGUCAUGUACAAGCUUUUUGCUCGUAUUAAUA [Mat - hsa-mir-208a - Mod of JL - D30] (puzzle: Sensor for hsa-mir-208a)	491	12.7	528			

Sequence	apparent KD of MS2 coat protein [1] [nM]	apparent KD of MS2 coat protein [2] [nM]	apparent KD of MS2 coat protein [3] [nM]	apparent KD of MS2 coat protein [4] [nM]	apparent KD of MS2 coat protein (input ligand: FMN 200 uM) [nM]	apparent KD of MS2 coat protein (input ligand: none) [nM]
UUUAAACAUGAGGAUCACCCAUGUUUUUUCAUGGGAGGAUAUCUGAGUUAAUUAUAUUAAGGAGAAGGCCUAUUUU [× ×•×ª×• ×ž×“×™× ×” × ×—×ª-01] (puzzle: Same State 1)	102	38.6	75.9			
GCUCGAUGAGCUGUUUACAUGAGGAUCACCCAUGUAGAUGCGGAGGAUAUUUACGUGCUUUAUGUAGAGAAGGCCGUAUCGAGC [SameState NG3 #80] (Eterna round: R96, puzzle: Same State NG 3)				24.5	14	24.1
GCGAUAUGAUGCUACAUGAGGAUCACCCAUGUAGCGACAGCUAAGGAUAUUGGAAAGGGAGGAGACGAGAAGGUAGGGUCACGC [AK SSNG3-V2-24.1] (Eterna round: R96, puzzle: Same State NG 3)				11.6	11.5	17.2
ACAUGAAAUUUAGGAUAUUUUGUACCUACAUGUGACAUGAGGAUCACCCAUGUGGUAAGUAUGAGAAAGAAGGAAAAGAUAUGU [Equivalence 9 - Jieux - Same State NG 2] (Eterna round: R96, puzzle: Same State NG 2)				61.6	71.8	70.9
AGAAAACAUGAGGAUCACCCAUGUAUAGUGAAUACAGGAUAUCACCGGCGGAAUAGCCAGUGAGAAGGGUGAUCGC [Aarusxe] (puzzle: Same State 1)	71.5	11.5	41			
UAGGCUGGUACAGGAUAUGCCGUAUUUUAGUCGGCAGAAGGGUGCUCACAUGAGGAUCACCCAUGUAUACAGCCAGAUCAUGUU [MOD JMF Solution 2] (Eterna round: R96, puzzle: Same State NG 1)				107	132	43.2
AACAGUCGGCGAGGAUAUGGACGGACAGGCUUGCCUGUGCGGCUCACAUGAGGAUCACCCAUGUUCUAGAAGGCGCCACUGAGA [Atteve] (Eterna round: R96, puzzle: Same State NG 2)				50	21.3	81.7
CGGGUACAUGAGGAUCACCCAUGUGGAAGAGAUGCAGGAUAUGUGGGAAAAGGGAAUGUAACAGAAGGGCAAGGAG [JR_SS!_Sub016] (puzzle: Same State 1)	53.4	64.1	144			
GGCAAUAUCACAGGAUAUUGGAAAGGAAGUGUACAAGAAGGGUGAUAGGGCCUCAGCAACAUGAGGAUCACCCAUGUACUGAGC [PowerStrip SSNG 1.10] (Eterna round: R96, puzzle: Same State NG 1)				13.5	62.6	40.8
UCUUGGUUUUUGCUCGUUUUUUGUGUUGAACAUGAGGAUCACCCAUGUAUUGUACGGUCCAAUUUGAUAAUGGUCCG [JMF 27] (puzzle: Sensor for hsa-mir-208a)	25.1	13.9	25.6			
UGGCUCAGACGAGGAUAUGAUCAUGGCGCUUCGGCGCAUACAUGAGGAUCACCCAUGUAGGGUGAUCAGAAGGCGUCUGAGCCA [SSNG2/8-A2] (Eterna round: R96, puzzle: Same State NG 2)				413	55.8	460
CGCUGCGUUUCAUAGGAUAUGUGGUUUUGAACAUGAGGAUCACCCAUGUAGACGUCAAUGGCUCCACAGAAGGGUGACACUAGUG [Aredis] (puzzle: Same State 2)	261	571	908			
UAGUACAUGCUUUUUGCCCGUCUUAGAUAACAUGAGGAUCACCCAUGUAAGGUGAAAGUUAUAUAGUGGAGGAAGAU [JR_SHM208A_Sub055] (puzzle: Sensor for hsa-mir-208a)	107	360	107			
AGUCCAGCGAAAGCUGGACAAAAGCAUGUACAUGAGGAUCACCCAUGUUCAUGUACAAGCUUUUUGCUCGUCUUAAA [Zipper 52 - 13] (puzzle: Sensor for hsa-mir-208a)	486	16.2	588			
AGAACAUGACGAGGAUAUGGAACAUGAGGAUCACCCAUGUAUGUUCCAUAACGCGAAUAAAGAAUCCAGAAGGCGUCGUGAAGA [Mat - Same State NG 2 - JL mod - D32] (Eterna round: R96, puzzle: Same State NG 2)				116	34.5	147
GUUAAACAUGAGGAUCACCCAUGUAAUAAUAUGGGAGGAUAUGCGAAAUUAAUUAAUUAAGCAGAAGGCCUAAUUG [Mat - Same State 1 - D98] (puzzle: Same State 1)	38.3	148	217			
